Reference: publication PMC7247208, “A cell suspension based uptake method to study high affinity glucosinolate transporters” (Plant Methods, 2020)

B1: AtGTR2 (Arabidopsis thaliana) (protein)
chain: MERKPLELESTDNHQNPSSAVYGGSVTAVDSVEEDVQNQKKVVYRGWKVMPFIIGNETFEKLGIIGTLSNLLVYLTAVFNLKSITAATIINAFSGTINFGTFVAAFLCDTYFGRYKTLSVAVIACFLGSFVILLTAAVPQLHPAACGTAADSICNGPSGGQIAFLLMGLGFLVVGAGGIRPCNLAFGADQFNPKSESGKRGIDSFFNWYFFTFTFAQILSLTLVVYVQSNVSWTIGLTIPAVLMFLACLIFFAGDKLYVKIKASGSPLAGIAQVIAVAIKKRGLKPAKQPWLNLYNYYPPKYANSKLKYTDQFRFLDKAAILTPEDKLQPDGKPADPWKLCTMQQVEEVKCIVRVLPIWFASSIYYLTITQQMTYPVFQALQSDRRLGSGGFVIPAATYVVFLMTGMTVFIVVYDRVLVPTMRRITGLDTGITLLQRIGTGIFFATASLVVAGFVEERRRTFALTKPTLGMAPRKGEISSMSAMWLIPQLSLAGVAEAFAAIGQMEFYYKQFPENMRSFAGSIFYVGGGVSSYLGSFLIATVHRTTQNSSGGNWLAEDLNKGRLDLFYFMIAGILAVNFAYFLVMSRWYRYKGSDDEVTTYETNENIIKQQDKNVA
notes: full-length CDS from Col-0 leaf cDNA, untagged, pEarleyGate100 (CaMV35S), stably expressed in cotton CCL-1 cells; C-terminal YFP fusion only for localization
B2: AtGTR1 (Arabidopsis thaliana) (protein)
chain: MKSRVILNHRDRRDKNHNNNNTNHYTQVDTMERKPLEVEPSTTTTNTDVVDSFEEEQRKIVYRGWKVMPFIIGNETFEKLGIIGTLSNLLVYLTSVFNLKSYTAATIINAFSGTINFGTFIAAFLCDTYFGRYKTLSVAVIACFLGSFVILLTAAIPSLHPVACGNKISCEGPSVGQILFLLMGLGFLVVGAGGIRPCNLAFGADQFNPKSESGKKGINSFFNWYFFTFTFAQIISLTAVVYIQSNVSWTIGLIIPVALMFLACVIFFAGDRLYVKVKASGSPLAGIARVIAAAIKKRGLKPVKQPWVNLYNHIPSNYANTTLKYTDQFRFLDKAAIMTPEEKLNSDGTASDPWKLCTLQQVEEVKCIVRVIPIWFASTIYYLAITIQMTYPVFQALQSDRRLGSGGFRIPAATYVVFLMTGMTVFIIFYDRVLVPSLRRVTGLETGISLLQRIGAGFTFAIMSLLVSGFIEERRRNFALTKPTLGMAPRTGEISSMSALWLIPQLTLAGIAEAFAAIGQMEFYYKQFPENMKSFAGSIFYVGAGVSSYLASFLISTVHRTTAHSPSGNWLAEDLNKAKLDYFYFMLTGLMVVNMAYFLLMARWYRYKGGNDEDITEIETNEEETKQQQLQDKNSV
notes: as for B1

Tests used:
Details in all cases: pH 5, MSOT3 without nitrate salts, 1 h uptake, transport
[1] = substrate: O=S(=O)(O)O/N=C(/Cc1ccc(O)cc1)S[C@@H]1O[C@H](CO)[C@@H](O)[C@H](O)[C@H]1O; test: cells, lysate or membranes
[2] = substrate: C=CC/C(=N/OS(=O)(=O)O)S[C@@H]1O[C@H](CO)[C@@H](O)[C@H](O)[C@H]1O; test: uptake into CCL-1 cotton suspension cells, HPLC of desulfoglucosinolates, Michaelis-Menten fit; assay type: cell-based, Arabidopsis thaliana
[3] = substrate: C=CCC/C(=N\OS(=O)(=O)O)S[C@@H]1O[C@H](CO)[C@@H](O)[C@H](O)[C@H]1O; test: as above; assay type: cell-based, Arabidopsis thaliana

Protein	Km [1]	Vmax [1]	Km [2]	Vmax [2]	Km [3]	Vmax [3]
B1	166.7 ± 40 µM	1.2e-06 µmol/min/mg	436.7 ± 154 µM	4.6e-06 µmol/min/mg	153.3 ± 59 µM	2.9e-06 µmol/min/mg
B2	104.5 ± 56 µM	5e-07 µmol/min/mg	117.9 ± 44 µM	5e-07 µmol/min/mg	279.1 ± 109 µM	3.4e-06 µmol/min/mg
